Here are results for two molecules from publication doi:10.1101/2021.06.15.448552 (bioRxiv, 2021).

In data set [1] the target is borneol-type dehydrogenase SrBDH1 from Salvia rosmarinus (S. rosmarinus). Nature of the data set: cryo-EM structure.
Data set [2] shares this target. Nature of the data set: SEC-MALS.
The data set “SEC-MALS” deals with the molecule itself. Nature of the data set: SEC-MALS.

Where “and” joins values, the source holds several entries; their conditions need not be identical. Equal values may be shown once.

For “borneol-type dehydrogenase SrBDH1 from Salvia rosmarinus (enzyme)”, the stoichiometry N in data set [1] and in data set [2] was 4 throughout.

B1: borneol-type dehydrogenase SoBDH2 from Salvia officinalis (enzyme)
chain: MATGAANVESPQSLPLRLLGRVALVTGGSSGIGESIVLLFRKHGAKVCIADVQDNQGQRLCETLGGSSDIAFCHCDVTIEDDVKRAVDFTVDKFGTLDIMVNNAGVSGPPCPDIRDFELSAFDRVFDINVRGVFIGMKHAARIMIPAKKGSIISISSVASTMGGLGPHAYTGSKHAVLGLTKNVAAELGKHGIRVNCVSPYAVATSLALAHLPEAERTEDTWDDFRRFVADNANLQGVELTMEDVANAVVFLASDEARYVSGMNLMVDGGFTSTNHALQVFRP
As for B1, in “SEC-MALS”, the “stoichiometry N” value is 8 and 4.
